Patent publication US20220289859A1 (GlaxoSmithKline, published 2022)

T1: BCMA (UniProt Q02223 1-54, limits assumed)
T1 construct: also called antigen; CD269
T1 sequence (looked up): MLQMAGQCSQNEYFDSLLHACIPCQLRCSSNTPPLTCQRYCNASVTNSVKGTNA

B1: belantamab mafodotin DL4b species (antibody, human IgG1, kappa)
heavy: not shown
light: not shown
modifications: drug load of four MMAF; conjugation sites as printed: LC C230, HC 233, LC C230 and HC 233
B2: belantamab mafodotin DL8 species (antibody, human IgG1, kappa)
heavy: not shown
light: not shown
modifications: MMAF on LC C214; drug load of eight MMAF; conjugation sites as printed: LC C214, HC 224, LC C214, HC 224, LC C230, HC 233, LC C230 and HC 233
B3: belantamab deglycosylated with PNGaseF (antibody, human IgG1, kappa)
heavy: not shown
light: not shown
modifications: N-linked glycans removed with PNGaseF
B4: belantamab mafodotin DL2 species (antibody, human IgG1, kappa)
heavy: not shown
light: not shown
modifications: MMAF on LC C214 of one light chain; drug load of two MMAF per antibody; conjugation sites LC C214 and HC 224 (one embodiment)
B5: belantamab mafodotin (antibody, human IgG1, kappa)
heavy: not shown
light: not shown
modifications: MMAF on LC C214 in part of the molecules; MMAF conjugated to interchain cysteine sulfhydryls (sites printed at paragraph 239: HC 224, C230, HC 233); heterogeneous drug load DL0 to DL8, average DAR about 4 (2.1 to 5.7 in the DAR samples of Example 4)
notes: Antibody-drug conjugate: belantamab conjugated to MMAF; Tested as lots, as samples of differing average DAR and as forced-degradation samples (oxidised, base, acid, thermal, photo); the sample is named in each row; also called anti-BCMA ADC; ADC
B6: belantamab mafodotin DL4a species (antibody, human IgG1, kappa)
heavy: not shown
light: not shown
modifications: MMAF on LC C214; drug load of four MMAF; conjugation sites LC C214, HC 224, LC C214 and HC 224
B7: belantamab mafodotin DL0 species (antibody, human IgG1, kappa)
heavy: not shown
light: not shown
modifications: no drug load
notes: antibody without cytotoxic agent
B8: belantamab mafodotin DL6 species (antibody, human IgG1, kappa)
heavy: not shown
light: not shown
modifications: MMAF on LC C214 of one light chain; drug load of six MMAF; conjugation sites as printed: LC C214, HC 224, LC C230, HC 233, LC C230 and HC 233

Assays:
[1] = target: Neonatal Fc Receptor (FcRn) (UniProt P55899 24-297; P61769 21-119, limits assumed); assay: SPR specific binding activity, FcRn on NTA chip; ref std #162397940
Neonatal Fc Receptor (FcRn), sequence (P55899 24-297 limits assumed, form in doubt, chain 1 of 2): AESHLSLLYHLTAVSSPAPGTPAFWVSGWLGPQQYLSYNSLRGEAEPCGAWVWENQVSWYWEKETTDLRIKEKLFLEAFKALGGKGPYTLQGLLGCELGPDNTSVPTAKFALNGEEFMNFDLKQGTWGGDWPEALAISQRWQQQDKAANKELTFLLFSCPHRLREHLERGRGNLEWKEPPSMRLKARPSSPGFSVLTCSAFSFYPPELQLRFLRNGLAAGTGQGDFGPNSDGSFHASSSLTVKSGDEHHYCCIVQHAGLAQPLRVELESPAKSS
Neonatal Fc Receptor (FcRn), sequence (P61769 21-119 limits assumed, form in doubt, chain 2 of 2): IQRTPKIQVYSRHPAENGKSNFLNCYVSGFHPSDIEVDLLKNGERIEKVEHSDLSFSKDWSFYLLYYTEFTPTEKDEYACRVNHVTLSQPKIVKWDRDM
Description: The FcRn binding concentration of the sample was determined by interpolation of the binding response on a calibration curve. Specific binding activity (%) was calculated by dividing the FcRn binding concentration by the total protein concentration.

[2] = target: T1, BCMA; assay: SPR specific binding activity, protein A capture; ref std #162397940
Description: (§1) The specific binding activity (%) was calculated by dividing the BCMA or FcγRIIIa binding concentration by the absorbance at 280 nm concentration.

[3] = target: T2, FcγRIIIa (UniProt P08637 17-208, limits assumed); assay: as above
T2 construct: also called CD16a
T2 sequence (P08637 17-208 limits assumed): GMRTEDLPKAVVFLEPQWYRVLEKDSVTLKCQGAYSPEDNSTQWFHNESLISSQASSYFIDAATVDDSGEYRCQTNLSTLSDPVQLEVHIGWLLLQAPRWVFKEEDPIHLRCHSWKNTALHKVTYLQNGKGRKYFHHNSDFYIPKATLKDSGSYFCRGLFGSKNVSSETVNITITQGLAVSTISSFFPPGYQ
Description: as §1

[4] = target: T1, BCMA; assay: SPR as in Example 4; glyco-enriched samples of belantamab
Description: as §1

[5] = target: T1, BCMA; assay: SPR, protein A capture; H2O2-treated 1 h; ref std #182407660A
Description: as §1

Binder	FcRn (%) [1]	BCMA (%) [2]	FcγRIIIa (%) [3]	Specific BCMA binding activity [4]	% Antigen Specific Binding [5]
B1	99%	90%	91%	–	–
B2	93%	86%	82%	–	–
B3	–	–	–	95%	–
B4	109%	99%	104%	–	–
B5	101%	96%	97%	–	99%
B6	102%	95%	103%	–	–
B7	108%	103%	110%	–	–
B8	97%	89%	84%	–	–
